{"source": "paper PMC10861901", "target": "A. fulgidus DsrC-trisulfide (Archaeoglobus fulgidus)", "assay": "SPR", "data": [{"substance": "DsrMKJOP complex of Archaeoglobus fulgidus (from UniProt O29749 1-332; O29748 1-555; O29747 1-142; O29751 27-269; O29750 1-395)", "values": [{"measurement": "Kd", "result": 200, "unit": "nM"}]}]}
